Reference: PMC12703665, “A Trifunctional, Rare-Earth Theranostic Chelator Platform to Enable Diagnostic Nuclear Imaging, Surgical Resection, and Radiotherapy” (Journal of the American Chemical Society, 2025)
Like-named read-outs stand apart in the source and are kept apart here.

Assays:
[1] = LogD7.4 lipophilicity measurements (1-octanol/DPBS); assay type: physicochemical; settings: 86Y-labeled tracer, 1-octanol/DPBS pH 7.4
Procedure: Figure S49. Chromatographic analysis of [177Lu]Lu-PSMA-617 and its corresponding non-radioactive reference complex. Absorbance of non-radioactive samples was monitored at 254 nm.
[161Tb]TbCl3 (9.34 µL, 4.0 mCi) and PSMA-617 (12.2 µL, 9.80 µM) were dissolved in a mixture of NaOAc buffer (20.0 µL, 1 M, pH 5.5), DMSO (20.0 µL) and water (38.4 µL). The resulting mixture was vortexed and heated at 80 °C for 20 minutes. Quantitative labeling was confirmed via radio-HPLC (Method D, Rt = 7.73 min – Absorbance monitored at 254 nm).
Figure S50. Chromatographic analysis of [161Tb]Tb-PSMA-617 and its corresponding non-radioactive […]
4.3 LogD7.4 Lipophilicity Measurements pepa-pic2, mepa-pic2, pepa2-pic and pepa2-pic-PSMA were radiolabeled with [86Y]YCl3 and formulated in DPBS 1X pH 7.4 at a concentration of 25-29 µCi/mL. […] Samples were centrifuged for 5 min at 5000 rpm to separate (also on this page, place not known: 02468101214161820 Time (min) Normalized Absorbance (a.u) Normalized Counts (cps) 02468101214161820 Time (min) Normalized Absorbance (a.u) Normalized Counts (cps)) […]
both layers. […] LogD7.4 values calculated according […]
Female BALB/c mice were purchased from Jackson Laboratory. Biodistribution profiles of Y-86 labeled mepa-pic2, pepa-pic2 and […] were first evaluated in healthy naïve mice. […]
Table S1. […] Values expressed as % ID/g. Error expressed as ± 1 SD for n = 4. […]

[2] = tested on: PC-3 PIP/flu (PSMA+/PSMA–) tumor xenografts
Procedure: For in vivo evaluation, athymic nude mice-bearing bilateral PC-3 PIP/flu (PSMA^+/PSMA^–) tumor xenografts were used (Figure ).
Representative PET-CT (Y-86) or SPECT (Lu-177, Tb-161) images were acquired at different time points starting as early as 0.5 h and up to 25-hours post administration of radiotracer. Mice were initially anesthetized with isoflurane gas at 4% isoflurane in oxygen and maintained during scans at 2.0%. PET-CT and SPECT images were normalized to units of percentage of injected dose per cubic centimeter and presented as maximum intensity projected scan (MIPS) images.
PET-CT scans were acquired in a Siemens Inveon Hybrid MicroPET/CT Scanner (Siemens Medical Solutions USA, Inc., Knoxville, TN), and image processing and region of interest (ROI) analysis conducted using the Inveon Research Workstation analysis software. ROI analysis of the PET/CT images was used to estimate tracer uptake in major organs or tissues, and quantitative results are given as percentage of injected dose per cubic centimeter (%ID/cc).
SPECT scans, on the other hand, were collected in a MILabs U-SPECT/CTUHR (ultra high-resolution) system and image processing was carried out using Imalytics preclinical image analysis software.

## COCCOCCOCCOc1ccc(C#Cc2cc(CN3CCN(Cc4cccc(C(=O)O)n4)CCN(Cc4cc(SC[C@H](N)C(=O)NCCCCCC(=O)NCCCC[C@H](NC(=O)N[C@@H](CCC(=O)O)C(=O)O)C(=O)O)cc(C(=O)O)n4)CC3)nc(C(=O)O)c2)cc1 [[86Y]Y-pepa-pic2-C-Hex-KuE, metal not drawn]
[1]
  logD7.4: −2.98
[2]; 0.5 h
  Bone (ROI): 1.3 ± 0.5 %ID/cc
  Heart (ROI): 1.7 ± 0.5 %ID/cc
  L. Kidney (ROI): 12.7 ± 1.6 %ID/cc
  Liver (ROI): 1.4 ± 0.5 %ID/cc
  Muscle (ROI): 0.8 ± 0.3 %ID/cc
  R. Kidney (ROI): 12.0 ± 2.4 %ID/cc
  Tumor + (ROI): 4.6 ± 1.7 %ID/cc
[2]; 0.5 h post-injection
  accumulation in the PSMA- tumor (PET/CT): no significant accumulation
[2]; 1 h
  Bone (ROI): 1.0 ± 0.5 %ID/cc
  Heart (ROI): 1.2 ± 0.3 %ID/cc
  L. Kidney (ROI): 12.2 ± 5.5 %ID/cc
  Liver (ROI): 1.1 ± 0.3 %ID/cc
  Muscle (ROI): 0.8 ± 0.4 %ID/cc
  R. Kidney (ROI): 11.9 ± 3.0 %ID/cc
  Tumor + (ROI): 4.4 ± 1.8 %ID/cc
[2]; 1.5 h
  Bone (ROI): 0.8 ± 0.4 %ID/cc
  Heart (ROI): 1.0 ± 0.5 %ID/cc
  L. Kidney (ROI): 12.2 ± 3.4 %ID/cc
  Liver (ROI): 0.9 ± 0.4 %ID/cc
  Muscle (ROI): 0.6 ± 0.4 %ID/cc
  R. Kidney (ROI): 12.7 ± 2.9 %ID/cc
  Tumor + (ROI): 5.2 ± 1.8 %ID/cc
[2]; 4 h
  Bone (ROI): 0.5 ± 0.3 %ID/cc
  Heart (ROI): 0.5 ± 0.3 %ID/cc
  L. Kidney (ROI): 8.8 ± 1.9 %ID/cc
  Liver (ROI): 0.7 ± 0.4 %ID/cc
  Muscle (ROI): 0.4 ± 0.2 %ID/cc
  R. Kidney (ROI): 8.8 ± 2.3 %ID/cc
  Tumor + (ROI): 5.2 ± 1.7 %ID/cc
[2]; 25 h
  Bone (ROI): 0.3 ± 0.2 %ID/cc
  Heart (ROI): 0.1 ± 0.1 %ID/cc
  L. Kidney (ROI): 4.0 ± 1.2 %ID/cc
  Liver (ROI): 0.3 ± 0.2 %ID/cc
  Muscle (ROI): 0.3 ± 0.3 %ID/cc
  R. Kidney (ROI): 4.0 ± 1.2 %ID/cc
  Tumor + (ROI): 3.3 ± 1.0 %ID/cc
